Laboratory results reported in article PMC2683983 (Molecular pharmaceutics, 2009).
Numbered stars: 1 amine (or outer) side, 2 acyl side, 3 side chain; on linkers, the order of the positions; unused ones are H or OH. Bridge positions count the residues as written; N and C are the ends. Peptide text beside a SMILES is read from it. * marks the point of attachment. Doxorubicin(3'-N) = COc1cccc2c1C(=O)c1c(O)c3c(c(O)c1C2=O)C[C@@](O)(C(=O)CO)C[C@@H]3O[C@H]1C[C@H](N*)[C@H](O)[C@H](C)O1; Suc = O=C(CCC(=O)[*:2])[*:1]; AEEEA = NCCOCCOCCOCC(=O)O

How the values were obtained:
[1] = pH 7.4; cited from earlier work
HL-60 cells = conditions: HL-60, 10 μM, 1 h; for intracellular fluorescence distribution / uptake at 4 °C / intracellular fluorescence distribution at 37 °C: RPMI 1640, epifluorescence, rhodamine filter; for entry mechanism into cells: 37 °C compared with 4 °C
[2] = test system: ICAM-1/LFA-1-mediated heterotypic T-cell adhesion; conditions: cited from earlier work
I-domain of LFA-1 = conditions: cited from earlier work

**Q.** For COc1cccc2c1C(=O)c1c(O)c3c(c(O)c1C2=O)C[C@@](O)(C(=O)CO)C[C@@H]3O[C@H]1C[C@H](N)[C@H](O)[C@H](C)O1 [DOX, Doxorubicin, reference compound], which distribution ratio [1] is on record?
**A.** 1.2

**Q.** And the “intracellular fluorescence distribution / uptake at 4 °C” value (HL-60 cells)?
**A.** uptake of DOX was suppressed

**Q.** What about the “intracellular fluorescence distribution at 37 °C” value (HL-60 cells) of the same molecule?
**A.** localized inside the nucleus

**Q.** For COc1cccc2c1C(=O)c1c(O)c3c(c(O)c1C2=O)C[C@@](O)(C(=O)CO)C[C@@H]3O[C@H]1C[C@H](NC(=O)CCC(=O)NCCOCCOCCOCC(=O)N[C@H]2CSSC[C@@H](C(=O)O)NC(=O)[C@H](C(C)C)NC(=O)[C@H](CO)NC(=O)CNC(=O)CNC(=O)[C@H](CCCNC(=N)N)NC(=O)[C@@H]3CCCN3C2=O)[C@H](O)[C@H](C)O1 [DOX-PEGcIBR7] ({Doxorubicin(3'-N)-Suc-AEEEA}-CPRGGSVC-OH; disulfide 1-8), which “intracellular fluorescence distribution / uptake at 4 °C” value (HL-60 cells) is on record?
**A.** diffuse fluorescence of the conjugates inside the cell cytosol

**Q.** What about the “entry mechanism into cells” value (HL-60 cells) of the same molecule?
**A.** passive diffusion

**Q.** What about the “intracellular fluorescence distribution at 37 °C” value (HL-60 cells) of the same molecule?
**A.** diffuse fluorescence distribution pattern in the cellular cytoplasm

**Q.** Which results are given for COc1cccc2c1C(=O)c1c(O)c3c(c(O)c1C2=O)C[C@@](O)(C(=O)CO)C[C@@H]3O[C@H]1C[C@H](NC(=O)CCC(=O)N[C@H]2CSSC[C@@H](C(=O)O)NC(=O)[C@H](C(C)C)NC(=O)[C@H](CO)NC(=O)CNC(=O)CNC(=O)[C@H](CCCNC(=N)N)NC(=O)[C@@H]3CCCN3C2=O)[C@H](O)[C@H](C)O1 [DOX-cIBR7] ({Doxorubicin(3'-N)-Suc}-CPRGGSVC-OH; disulfide 1-8)?
**A.** intracellular fluorescence distribution / uptake at 4 °C (HL-60 cells): diffuse fluorescence of the conjugates inside the cell cytosol; entry mechanism into cells (HL-60 cells): passive diffusion; intracellular fluorescence distribution at 37 °C (HL-60 cells): diffuse fluorescence distribution pattern in the cellular cytoplasm

**Q.** Which distribution ratio [1] does the source give for CNGRC [DOX-CNGRC] here?
**A.** 5.3

**Q.** For cyclo(1,6)PRGGKV (head to tail), which “peptide activity after introduction of Lys5 in place of Ser5” value [2] is on record?
**A.** lower peptide activity

**Q.** For cyclo(1,8)CPRGGSVC (disulfide) [cIBR7], which “activity to inhibit heterotypic T-cell adhesion compared with parent cIBR” value [2] is on record?
**A.** better activity

**Q.** And the “binding affinity to the isolated I-domain compared with cIBR” value (I-domain of LFA-1)?
**A.** higher
